Source: patent US20260043041A1, “HSL PROTEIN, GENE, VECTOR, CELL, COMPOSITION AND USE THEREOF, AND METHOD FOR IMPROVING HERBICIDE RESISTANCE OF CROPS” (CENTRAL CHINA NORMAL UNIVERSITY, priority 2022, published 2026)
Entries after “also recorded” stand apart in the source; their conditions may differ.

How the values were obtained:
[1] = molecular target: T1, rice OsHSL1 (SEQ ID NO: 1) mutant OsHSL1_I335F (Oryza sativa, UniProt A0A7G1K9G4, I335F); assay: Enzyme kinetic parameters with HPPD inhibitors as substrate (HPLC); assay type: biochemical; details: compared with OsHSL1 wild type
T1 construct: isolated enzyme, HPLC assay
T1 sequence (A0A7G1K9G4 entry or part of it I335F): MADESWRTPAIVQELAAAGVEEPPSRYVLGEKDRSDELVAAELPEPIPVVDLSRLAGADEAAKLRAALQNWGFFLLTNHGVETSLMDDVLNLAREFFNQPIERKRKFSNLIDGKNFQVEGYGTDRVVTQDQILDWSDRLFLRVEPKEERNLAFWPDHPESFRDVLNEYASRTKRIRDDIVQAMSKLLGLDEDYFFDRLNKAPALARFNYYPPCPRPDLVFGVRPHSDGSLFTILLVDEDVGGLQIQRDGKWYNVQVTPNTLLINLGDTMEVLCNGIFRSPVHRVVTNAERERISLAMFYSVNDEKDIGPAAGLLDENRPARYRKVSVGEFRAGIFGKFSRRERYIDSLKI
From the text: (§1) High Performance Liquid Chromatography (HPLC) was used to test OsHIS1 wild-type protein (the amino acid sequence of OsHIS1 wild-type is shown as SEQ ID NO 2, and the corresponding nucleotide sequence is shown as SEQ ID NO 21), the enzyme kinetic parameters of OsHSL1 wild-type protein and some OsHSL1 mutant proteins with higher reactivity and HPPD inhibitors, and the specific results are shown in Table 9-Table 12. […] Each sample was replicated three times. • e.

[2] = molecular target: T2, rice OsHSL1 (SEQ ID NO: 1) mutant OsHSL1_F140H/L204F/F298L/I335A (Oryza sativa, UniProt A0A7G1K9G4, F140H/F298L/I335A/L204F); assay: as above; assay type: biochemical; details: compared with OsHSL1 wild type; close to the OsHIS1 wild type
T2 construct: isolated enzyme, HPLC assay
From the text: as §1

[3] = tested on: OsHSL1_F140H/L204F/F298L/I335A mutant T1 generation positive rice plants; assay: Herbicide resistance test, over-expression in rice (stem-leaf treatment); assay type: in vivo; details: 2 g/mu and 8 g/mu, after 23 days of treatment
Description: (§2) Successfully overexpressed OsHSL1_F140H/L204F/F298L/I335A mutants and OsHSL1 wild type TO generation tissue culture seedlings were selected, cultivated and harvested, and then sown to offspring population T1 generation rice plants, and positive over-expression rice plants were identified.
(§3) OsHSL1_F140H/L204F/F298L/I335A mutant T1 generation positive rice plants and OsHSL1 wild-type T1 generation positive rice plants at 3 weeks of seedling age were treated with different concentrations of methyl-benquitrione aqueous solution on the Stem leaves, and OsHSL1 wild-type T1 generation positive rice plants as a control. The resistance of mutant OsHSL1_F140H/L204F/F298L/I335A to methyl-benquitrione was tested, and the specific results were shown in FIG. 1.

[4] = tested on: OsHSL1 wild type T1 generation positive rice plants; assay: as above; assay type: in vivo; details: 2 g/mu and 8 g/mu
Description: as §2, §3

[5] = Catalytic activity of HSL proteins on HPPD inhibitors (HPLC, substrate consumption); assay type: biochemical; details: 30° C., 10 h, protein 0.5 mg/mL
Description: (§4) Each sample was replicated three times. • e.
(§5) Control: refers to the addition of inhibitors to the reaction system, but not the addition of enzymes, which is regarded as the substrate surplus when the inhibitor is not catalyzed.
(§6) Sample: in the enzyme reaction system, the same volume and the same concentration (50 μM) of the inhibitor was added, and the catalytic efficiency of the enzyme to the inhibitor was observed.
(§7) Catalytic efficiency=(1−(peak area of substrate in sample)/(peak area of substrate in control))×100%.

[6] = assay type: biochemical; details: substrate topramezone 50 μM; 30° C.; 10 h; protein 0.5 mg/mL
Description: as §4, §5, §6, §7

[7] = tested on: T1 generation positive rice plants; assay: Herbicide resistance test of over-expression in rice (methyl-benquitrione stem-leaf treatment); assay type: in vivo; details: conclusion from FIG. 1
Description: as §2, §3
FIG. 1 is a graph showing the sensitivity of OsHSL1_F140H/L204F/F298L/I335A mutant T1 generation positive rice plants and OsHSL1 wild type T1 generation positive rice plants to the HPPD inhibitor methyl-benquitrione.

## Cc1c(C(=O)c2cnn(C)c2O)ccc(S(C)(=O)=O)c1C1=NOCC1 [topramezone]
[1]
  catalytic efficiency (in words): obviously superior

## Cc1ccccc1-n1c(=O)c2c(C)c(C(=O)C3=C(O)CCCC3=O)ccc2n(C)c1=O [methyl-benquitrione]
[2]
  affinity and catalytic efficiency (in words): better affinity and catalytic efficiency
[3]
  sensitivity (plant colour): basically keep normal green
[4]; after 16 days of treatment
  albinism symptoms: almost all have albinism symptoms
[4]; after 23 days of treatment
  albino symptoms: albino symptoms become very obvious

B1: OsHSL1_F140H/L204F/F298L/I335A: SEQ ID NO.1 with F140 to histidine, L204 to phenylalanine, F298 to leucine, I335 to alanine (protein)
chain: MADESWRTPAIVQELAAAGVEEPPSRYVLGEKDRSDELVAAELPEPIPVVDLSRLAGADEAAKLRAALQNWGFFLLTNHGVETSLMDDVLNLAREFFNQPIERKRKFSNLIDGKNFQVEGYGTDRVVTQDQILDWSDRLHLRVEPKEERNLAFWPDHPESFRDVLNEYASRTKRIRDDIVQAMSKLLGLDEDYFFDRLNKAPAFARFNYYPPCPRPDLVFGVRPHSDGSLFTILLVDEDVGGLQIQRDGKWYNVQVTPNTLLINLGDTMEVLCNGIFRSPVHRVVTNAERERISLAMLYSVNDEKDIGPAAGLLDENRPARYRKVSVGEFRAGIAGKFSRRERYIDSLKI
[5]; substrate Compound A 50 μM
  Catalytic efficiency (%) Compound A: 97%
[5]; substrate benzobicyclon technical 50 μM
  Catalytic efficiency (%) benzobicyclon technical: 100%
[5]; substrate mesotrione 50 μM
  Catalytic efficiency (%) Mesotrione: 90%
[5]; substrate methyl-benquitrione 50 μM
  Catalytic efficiency (%) methyl-benquitrione: 95%
[5]; substrate pyraquinate technical 50 μM
  Catalytic efficiency (%) pyraquinate technical: 40%
[5]; substrate tefuryltrione 50 μM
  Catalytic efficiency (%) tefuryltrione: 85%
[5]; substrate tembotrione 50 μM
  Catalytic efficiency (%) tembotrione: 71%
[6]
  Catalytic efficiency (%) topramezone: 4%
[7]
  resistance of over-expressing rice plants to methyl-benquitrione: can improve the resistance; also recorded: obvious resistance
